Changes are numbered by the printed parent chain.
B1: ePGT121.15.H1.L1 (antibody, V domains shown)
VH: QMQLQESGPGLVKPGETLSLTCSVSGASISSSYWSWLRETPGKGLEWIGYTHHSGDTNYAPSLKSRVHLGLHPSKNQVSLSLTSVTAADTAVYYCARTLHGRRIYGVVAFNEWFTYFYWEVWGNGTQVTVSS
VL: SDISVAPGETVRISCGGESIGSRAVQWYQHRAGQAPKLIIYNNQDRPPGIPERFSGSPDIDFGTTATLTITNVEAGDEATYYCHIWDSRRPTNWVFGGGTTLTVL
B2: ePGT121.15.H6.L1 (antibody, V domains shown)
VH: B1 VH with W113F, N124K
VL: B1 VL

Tests used:
[1] = target: HIV Env of the 113-member cross-clade virus panel (Table 6); experiment: cell-based or functional assay
[2] = target: HIV Env of the 106-virus cross-clade panel (Table 5); experiment: cell-based or functional assay

| Binder | Breadth [1] | GeoMean [1] | % Breadth [2] | Median IC50 [2] | breadth of neutralization at an IC80 of 0.01 microg/ml [2] | median IC80, 106-virus panel [2] | neutralization breadth (IC80), 106-virus panel [2] |
| --- | --- | --- | --- | --- | --- | --- | --- |
| B1 | 76% | 0.0061 | 75% | 1 ng/mL | 50% | 9.3 ng/mL | 69% |
| B2 | 77% | 0.0048 | – | – | – | – | – |

— patent publication US20210292396A1
